In this test the target is T1, EGFR in MKN45 stomach cancer cells (Homo sapiens, UniProt P00533).
T1 construct: endogenous in cells; host or cells: MKN45 (JCRB)
The test can be described thus: Confocal microscopy of EGFR internalization and degradation in MKN45 cells. To be noted: MKN45, 5 μg/ml each, 4 hrs, confocal images (FIGS. 5-7). The class given is cell-based. As to the method: Each antibody was used at a density of 5 μg/ml/well, whether individually or in combination. For control, the cells were treated with PBS only. The cells were immobilized onto the plates by treatment with 4% (v/v) formaldehyde for 15 min, washed three times with PBS, and then blocked with a blocking buffer (0.5% triton x-100 and 5% donkey serum) at room temperature for 1 hr. […] The cells were washed again three times with PBS, and incubated at room temperature for 1 hr with 100 μl of a 1:2000 dilution of a secondary antibody (A21433, Invitrogen). After being washed three times with PBS, the cells were counterstained with a DAPI-containing mounting medium (H-1200, Vector Lab), and examined by Confocal microscopy (Zeiss, LSM710).
Comparison was made of degradation efficiency between the bispecific antibody and a combination of the monospecific antibodies.

B1: anti-EGFR ab: scFv-Fc antibody recognizing EGFR: SEQ ID NO: 109 and 111 variable domains fused to N-terminus of IgG2 Fc (antibody, V domains shown)
VH: QVQLVQSGAEVKKPGSSVKVSCKASGFTFTDYKIHWVRQAPGQGLEWMGYFNPNSGYSTYAQKFQGRVTITADKSTSTAYMELSSLRSEDTAVYYCARLSPGGYYVMDAWGQGTTVTVSS
VL: DIQMTQSPSSLSASVGDRVTITCRASQGINNYLNWYQQKPGKAPKRLIYNTNNLQTGVPSRFSGSGSGTEFTLTISSLQPEDFATYYCLQHNSFPTFGQGTKLEIKRT
modifications: IgG2 Fc without entry; linker; Synthetic (heavy-chain variable region of anti-EGFR antibody); Synthetic (light-chain variable region of anti-EGFR antibody)
With B1, the “internalization into a cell and degradation of EGFR” value is reported as “induced by neither”. Where the note is “listed as anti-EGFR antibody”, the “internalization into a cell and degradation of EGFR” value is on record as “did not provoke the degradation of EGFR at all”.

(Values after patent publication US9388243B2, “Method of target membrane protein depletion” (Samsung Electronics Co., Ltd., priority 2013, dated 2016).)
